Measurements published in patent US20130288908A1 (MITSUBISHI TANABE PHARMA, published 2013).

B1: Fab-TT (Fab)
chain 1: MDIQMTQSPSSLSASVGDRVTITCRASQDIKNYLSWYQQQPGNAPKPLIYAGSNRQSGVPSRFSGSGSETDFTLTISSLQPEDFATYYCQQTYIYPITFGQGTKVEIKRTVAAPSVFIFPPSDEQLKSGTASVVCLLNNFYPREAKVQWKVDNALQSGNSQESVTEQDSKDSTYSLSSTLTLSKADYEKHKVYACEVTHQGLSSPVTKSFNRGEGGEQKLISEEDL
chain 2: MEVQLVESGGGLVQPGGSLRLSCAASGFTIERYAMGWVRQAPGKGLEWVGTIYPWGDYTDYADSVKGRFTISRDNSKNTLYLQMNSLRDEDTAVYYCARSNYPNGMYYVMEYWGQGTLVTVSSASTKGPSVFPLAPSSKSTSGGTAALGCLVKDYFPEPVTVSWNSGALTSGVHTFPAVLQSSGLYSLSSVVTVPSSSLGTQTYICNVNHKPSNTKVDKKVEPGSGGDYKDDDDKSSDYKDDDDKHHHHHH
notes: also called Fag-TT; TNFαR-reactive Fab
B2: Fab-HT (Fab)
chain 1: not shown
chain 2: B1 chain 2
notes: also called hybrid Fab (Her-2-reactive L chain and TNFαR-reactive H chain)

Key:
Her-2 = molecular target: T1, Her-2 (human, UniProt P04626 23-652); experiment: ELISA, Her-2 immobilized at 1 µg/ml, detection with HRP-labeled anti-FLAG antibody, OD 405 nm
T1 construct: Bought protein (R&D systems); also called human EGFR-2 (Her-2); Her2 antigen

biotinylated Her-2 = molecular target: T2, biotinylated Her-2 (human, UniProt P04626 23-652, biotinylated with Sulfo-NHS-SS-Biotin (sites not given)); experiment: sandwich ELISA, biotinylated antigen captured on the stAv coating (BSA coating as control), Fab detected with HRP-labeled anti-FLAG antibody, OD 405 nm
T2 construct: also called biotinylated antigen

Binder	binding result (Her-2)	binding result (biotinylated Her-2)
B1	no binding	no binding
B2	no binding	
